Data reported in paper PMC4822050 (2016).
Where a chain is given by its changes, count along the chain named. One block for each binder: values may come before it.

T1: Spacer of UHRF1 (residues 587–674) (human, UniProt Q96T88 587-674)
T1 chain: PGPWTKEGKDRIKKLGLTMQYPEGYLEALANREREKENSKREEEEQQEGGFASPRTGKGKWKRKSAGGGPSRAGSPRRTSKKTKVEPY

T2: SRA–Spacer of UHRF1 (residues 414–674) (human, UniProt Q96T88 414-674)
T2 chain: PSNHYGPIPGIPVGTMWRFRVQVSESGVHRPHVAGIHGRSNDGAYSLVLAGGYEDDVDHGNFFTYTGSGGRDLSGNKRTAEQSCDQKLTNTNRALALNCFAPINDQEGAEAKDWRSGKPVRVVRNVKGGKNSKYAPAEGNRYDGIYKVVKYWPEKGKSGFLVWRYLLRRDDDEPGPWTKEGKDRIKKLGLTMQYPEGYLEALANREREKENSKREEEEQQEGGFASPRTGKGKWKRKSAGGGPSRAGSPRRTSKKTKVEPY

T3: Spacer S639D (human, UniProt Q96T88 587-674, S639D)
T3 sequence: T1 chain with S53D

T4: Spacer K648D (human, UniProt Q96T88 587-674, K648D)
T4 sequence: T1 chain with K62D

T5: Spacer R649A (human, UniProt Q96T88 587-674, R649A)
T5 sequence: T1 chain with R63A

T6: Spacer S651D (human, UniProt Q96T88 587-674, S651D)
T6 sequence: T1 chain with S65D

T7: Spacer S666D (human, UniProt Q96T88 587-674, S666D)
T7 sequence: T1 chain with S80D

T8: Spacer^Δ642–651 (human, UniProt Q96T88 587-674, Δ642–651)
T8 sequence: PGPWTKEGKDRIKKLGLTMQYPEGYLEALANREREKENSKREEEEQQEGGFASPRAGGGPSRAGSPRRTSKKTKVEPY

T9: Spacer^Δ670–674 (human, UniProt Q96T88 587-674, Δ670–674)
T9 sequence: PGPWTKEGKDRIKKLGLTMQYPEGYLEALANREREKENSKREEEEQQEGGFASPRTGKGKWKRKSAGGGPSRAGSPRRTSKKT

T10: Spacer^Δ660–664 (human, UniProt Q96T88 587-674, Δ660–664)
T10 sequence: T9 sequence with G74T, P76K, R77K, R78T, T79K, S80V, K81E, K82P, T83Y

T11: Spacer^Δ650–654 (human, UniProt Q96T88 587-674, Δ650–654)
T11 sequence: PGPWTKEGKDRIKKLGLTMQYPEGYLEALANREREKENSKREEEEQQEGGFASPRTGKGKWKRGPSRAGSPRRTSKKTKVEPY

T12: Spacer^Δ655–659 (human, UniProt Q96T88 587-674, Δ655–659)
T12 sequence: T11 sequence with G64K, P65S, S66A, R67G, A68G

T13: Spacer^Δ665–669 (human, UniProt Q96T88 587-674, Δ665–669)
T13 sequence: T9 sequence with T79K, S80V, K81E, K82P, T83Y

T14: TTD–PHD of UHRF1 (residues 134–366) (human, UniProt Q96T88 134-366)
T14 chain: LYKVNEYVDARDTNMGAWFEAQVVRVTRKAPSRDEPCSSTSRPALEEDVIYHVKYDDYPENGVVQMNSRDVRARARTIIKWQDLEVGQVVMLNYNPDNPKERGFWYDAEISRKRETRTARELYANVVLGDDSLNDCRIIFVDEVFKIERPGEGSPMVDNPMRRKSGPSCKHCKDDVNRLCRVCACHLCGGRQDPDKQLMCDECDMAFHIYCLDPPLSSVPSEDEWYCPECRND

T15: R295D/R296D mutant of full-length UHRF1 (human, UniProt Q96T88 1-793, R295D | R296D)
T15 sequence: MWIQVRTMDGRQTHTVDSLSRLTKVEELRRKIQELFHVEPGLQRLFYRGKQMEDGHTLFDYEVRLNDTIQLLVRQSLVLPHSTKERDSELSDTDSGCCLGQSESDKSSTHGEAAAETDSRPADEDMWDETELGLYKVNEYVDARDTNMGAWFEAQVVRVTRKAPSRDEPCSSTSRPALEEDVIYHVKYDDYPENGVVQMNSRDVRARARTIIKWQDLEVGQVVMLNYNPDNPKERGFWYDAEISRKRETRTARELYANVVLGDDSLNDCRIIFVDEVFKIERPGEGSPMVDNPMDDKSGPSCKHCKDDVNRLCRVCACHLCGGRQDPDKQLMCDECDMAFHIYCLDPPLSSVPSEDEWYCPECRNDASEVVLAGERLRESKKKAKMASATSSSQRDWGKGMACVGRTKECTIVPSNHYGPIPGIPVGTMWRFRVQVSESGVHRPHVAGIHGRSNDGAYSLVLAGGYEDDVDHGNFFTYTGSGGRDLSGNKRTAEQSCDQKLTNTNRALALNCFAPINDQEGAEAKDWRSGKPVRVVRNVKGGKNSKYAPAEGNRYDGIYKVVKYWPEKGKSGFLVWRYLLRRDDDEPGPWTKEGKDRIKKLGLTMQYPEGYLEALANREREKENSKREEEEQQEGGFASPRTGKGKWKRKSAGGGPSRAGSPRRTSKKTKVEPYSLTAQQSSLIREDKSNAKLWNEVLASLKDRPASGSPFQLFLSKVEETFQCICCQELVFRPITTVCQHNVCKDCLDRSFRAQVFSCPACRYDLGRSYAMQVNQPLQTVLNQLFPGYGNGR

T16: UHRF1^Δ627–674 (human, UniProt Q96T88 1-793, Δ627–674)
T16 sequence: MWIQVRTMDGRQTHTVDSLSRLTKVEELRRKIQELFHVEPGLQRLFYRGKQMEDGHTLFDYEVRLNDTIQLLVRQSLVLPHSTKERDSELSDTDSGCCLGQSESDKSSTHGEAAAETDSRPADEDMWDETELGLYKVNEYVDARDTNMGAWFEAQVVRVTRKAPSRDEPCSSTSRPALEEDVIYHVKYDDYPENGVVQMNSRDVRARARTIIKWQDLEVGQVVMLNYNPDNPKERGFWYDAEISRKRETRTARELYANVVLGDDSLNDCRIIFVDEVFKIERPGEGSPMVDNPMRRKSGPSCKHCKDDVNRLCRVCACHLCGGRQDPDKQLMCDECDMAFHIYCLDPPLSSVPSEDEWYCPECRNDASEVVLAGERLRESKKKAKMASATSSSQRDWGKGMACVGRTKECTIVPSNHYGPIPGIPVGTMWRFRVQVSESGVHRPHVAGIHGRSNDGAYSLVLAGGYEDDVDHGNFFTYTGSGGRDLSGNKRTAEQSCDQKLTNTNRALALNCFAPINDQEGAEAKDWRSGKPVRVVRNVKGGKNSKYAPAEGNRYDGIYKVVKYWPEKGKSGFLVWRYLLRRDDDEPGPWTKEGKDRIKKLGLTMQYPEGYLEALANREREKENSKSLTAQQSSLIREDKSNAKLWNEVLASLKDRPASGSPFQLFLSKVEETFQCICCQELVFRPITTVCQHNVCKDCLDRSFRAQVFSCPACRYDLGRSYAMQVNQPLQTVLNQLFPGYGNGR

B1: TTD of UHRF1 (residues 134–285) (domain or fragment)
chain: LYKVNEYVDARDTNMGAWFEAQVVRVTRKAPSRDEPCSSTSRPALEEDVIYHVKYDDYPENGVVQMNSRDVRARARTIIKWQDLEVGQVVMLNYNPDNPKERGFWYDAEISRKRETRTARELYANVVLGDDSLNDCRIIFVDEVFKIERPGE

Tests used:
[1] = molecular target: T1, Spacer of UHRF1 (residues 587–674); assay: ITC
[2] = molecular target: T2, SRA–Spacer of UHRF1 (residues 414–674); assay: ITC
Spacer S639D = molecular target: T3, Spacer S639D; assay: ITC
Spacer K648D = molecular target: T4, Spacer K648D; assay: ITC
Spacer R649A = molecular target: T5, Spacer R649A; assay: ITC
Spacer S651D = molecular target: T6, Spacer S651D; assay: ITC
Spacer S666D = molecular target: T7, Spacer S666D; assay: ITC
[3] = molecular target: T1, Spacer of UHRF1 (residues 587–674); assay: ITC; in presence of hm-DNA (1:2)
[4] = molecular target: T2, SRA–Spacer of UHRF1 (residues 414–674); assay: ITC; in presence of hm-DNA (1:2)
Spacer^Δ642–651 = molecular target: T8, Spacer^Δ642–651; assay: ITC
Spacer^Δ670–674 = molecular target: T9, Spacer^Δ670–674; assay: ITC
Spacer^Δ660–664 = molecular target: T10, Spacer^Δ660–664; assay: ITC
Spacer^Δ650–654 = molecular target: T11, Spacer^Δ650–654; assay: ITC
Spacer^Δ655–659 = molecular target: T12, Spacer^Δ655–659; assay: ITC
Spacer^Δ665–669 = molecular target: T13, Spacer^Δ665–669; assay: ITC
[5] = molecular target: T14, TTD–PHD of UHRF1 (residues 134–366); assay: ITC; in presence of Spacer (1:2)
[6] = molecular target: B1; assay: ITC; in presence of Spacer R649A (1:2)
[7] = molecular target: B1; assay: ITC; in presence of Spacer K648D (1:2)
[8] = molecular target: T15, R295D/R296D mutant of full-length UHRF1; assay: ITC
[9] = molecular target: B1; assay: ITC; in presence of SRA
[10] = molecular target: T14, TTD–PHD of UHRF1 (residues 134–366); assay: ITC; in presence of Spacer (TTD-PHD/Spacer 1:2)
[11] = molecular target: B1; assay: ITC; in presence of Spacer S651D (1:2)
[12] = molecular target: B1; assay: ITC
UHRF1^Δ627–674 = molecular target: T16, UHRF1^Δ627–674; assay: ITC

Binder: B1
Kd [1]: 2340 nM | Kd [2]: 820 nM | Kd (Spacer S639D): 1150 nM | Kd (Spacer K648D): 5940 nM | Kd (Spacer R649A): 21400 nM | Kd (Spacer S651D): 8810 nM | Kd (Spacer S666D): 1260 nM | Kd [3]: 2040 nM | Kd [4]: 143000 nM | Kd (Spacer^Δ642–651): 11200 nM | Kd (Spacer^Δ670–674): 950 nM | Kd (Spacer^Δ660–664): 2470 nM | Kd (Spacer^Δ650–654): 3800 nM | Kd (Spacer^Δ655–659): 2980 nM | Kd (Spacer^Δ665–669): 1850 nM

Kd [5]: 1630 nM | Kd [6]: 2890 nM | Kd [7]: 6580 nM | Kd [8]: 36800 nM | Kd [9]: 880 nM | Kd [10]: 1630 nM | Kd [11]: 1280 nM | Kd [12]: 990 nM | Kd (UHRF1^Δ627–674): 1190 nM
Binder: ARTKQTARKSTGGKAPR (trimethyl-lysine at K9) [H3K9me3 peptide (1–17)]
